Test results taken from paper PMC5349899 (Oncotarget, 2016).
Blank lines part the entries; values can stand above or below the binder they belong to.

Molecular target: T1, TGF-β2
T1 sequence (P61812 303-414, species assumed, looked up): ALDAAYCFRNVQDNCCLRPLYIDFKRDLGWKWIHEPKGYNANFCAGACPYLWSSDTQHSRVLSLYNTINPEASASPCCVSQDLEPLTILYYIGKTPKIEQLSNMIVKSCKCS
Experiment: cell-based or functional assay

- IC50 of inhibition of PAI-1 luciferase reporter activity in Mv1Lu mink lung epithelial cells induced with 20 pM TGF-β2: 1200 pM
B1: bivalent TGF-β receptor trap ER (BGE-RII) (other)
chain: GPEPSTRCELSPINASHPVQALMESFTVLSGCASRGTTGLPREVHVLNLRSTDQGPGQRQREVTLHLNPIASVHTHHKPIVFLLNSPQPLVWHLKTERLAAGVPRLFLVSEGSVVQFPSGNFSLTAETEERNFPQENEHLLRWAQKEYGAVTSFTELKIARNIYIKVGEDQVFPPTCNIGKNFLSLNYLAEYLQPKAAEGCVLPSQPHEKEVHIIELITPSSNPYSAFQVDIIVDIRPAQEDPEVVKNLVLILKCKKSVNWVIKSFDVKGNLKVIAPNSIGFGKESERSMTMTKLVRDDIPSTQENLMKWALDNGYRPVTSYTMAPVANRFHLRLENNEEMRDEEVHTIPPELRILLDPDNGAVKFPQLCKFCDVRFSTCDNQKSCMSNCSITSICEKPQEVCVAVWRKNDENITLETVCHDPKLPYHDFILEDAASPKCIMKEKKKPGETFFMCSCSSDECNDNIIFSEEYNTSNPD
modifications: N-linked glycans (as isolated, glycosylated)

- IC50 of inhibition of PAI-1 luciferase reporter activity in Mv1Lu mink lung epithelial cells induced with 20 pM TGF-β2: 70 pM
B2: trivalent TGF-β receptor trap RER (RII-BGE-RII) (other)
chain: NGAVKFPQLCKFCDVRFSTCDNQKSCMSNCSITSICEKPQEVCVAVWRKNDENITLETVCHDPKLPYHDFILEDAASPKCIMKEKKKPGETFFMCSCSSDECNDNIIFSEEYNTSNPDGPEPSTRCELSPINASHPVQALMESFTVLSGCASRGTTGLPREVHVLNLRSTDQGPGQRQREVTLHLNPIASVHTHHKPIVFLLNSPQPLVWHLKTERLAAGVPRLFLVSEGSVVQFPSGNFSLTAETEERNFPQENEHLLRWAQKEYGAVTSFTELKIARNIYIKVGEDQVFPPTCNIGKNFLSLNYLAEYLQPKAAEGCVLPSQPHEKEVHIIELITPSSNPYSAFQVDIIVDIRPAQEDPEVVKNLVLILKCKKSVNWVIKSFDVKGNLKVIAPNSIGFGKESERSMTMTKLVRDDIPSTQENLMKWALDNGYRPVTSYTMAPVANRFHLRLENNEEMRDEEVHTIPPELRILLDPDNGAVKFPQLCKFCDVRFSTCDNQKSCMSNCSITSICEKPQEVCVAVWRKNDENITLETVCHDPKLPYHDFILEDAASPKCIMKEKKKPGETFFMCSCSSDECNDNIIFSEEYNTSNPD
modifications: N-linked glycans (as isolated, glycosylated)
